Molecular target: T1, BSA (UniProt P02769 25-607)
T1 construct: also called carrier protein BSA; 3% BSA
Assay: phage ELISA on coated plates, detection with HRP/anti-M13, OD450

T1 sequence (P02769 25-607 limits assumed): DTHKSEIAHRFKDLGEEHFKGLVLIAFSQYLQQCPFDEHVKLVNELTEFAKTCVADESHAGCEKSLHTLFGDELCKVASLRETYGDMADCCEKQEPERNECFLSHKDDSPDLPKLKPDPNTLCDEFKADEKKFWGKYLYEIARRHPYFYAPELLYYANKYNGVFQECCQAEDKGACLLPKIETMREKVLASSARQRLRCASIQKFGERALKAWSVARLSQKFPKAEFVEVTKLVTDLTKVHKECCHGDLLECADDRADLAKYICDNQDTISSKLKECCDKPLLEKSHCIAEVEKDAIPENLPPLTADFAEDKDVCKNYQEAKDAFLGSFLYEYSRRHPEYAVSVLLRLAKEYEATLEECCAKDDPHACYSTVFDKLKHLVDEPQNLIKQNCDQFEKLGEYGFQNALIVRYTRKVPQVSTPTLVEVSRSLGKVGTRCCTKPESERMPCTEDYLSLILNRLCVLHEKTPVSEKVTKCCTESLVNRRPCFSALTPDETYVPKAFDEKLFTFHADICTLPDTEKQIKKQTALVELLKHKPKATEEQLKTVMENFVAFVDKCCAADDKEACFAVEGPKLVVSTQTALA

B1: aflatoxin B1 nanobody 2014AFB-G15 (VHH)
VHH: QLQLVESGGGLVQAGGSLRLSCAASGRTFSSYAMGWFRQAPGKEREFVAAISWSGGSTYYTDSVKGRFTINRDNAKNTVYLQMNSLKPEDTAVYYCAAGFSGNYYRTPDYWGQGTQVTVSS
notes: also called antibody 2014AFB-G15
Does B1 bind?
Result: no binding (tested: wells coated with 3% BSA)

Reference: EP3124498A1 (Oilcrops Research Institute of Chinese Academy of …, dated 2017)
